# According to PMC7368258 (Proceedings of the National Academy of Sciences of the …, 2020):
# Numbering of substitutions follows the chain as printed. Names and notes keep the numbering of the source.
# B1: mCER-Prx2(C51S), expressed in HEK293 cells (natural protein)
# chain: MASGNARIGKPAPDFKATAVVDGAFKEVKLSDYKGKYVVLFFYPLDFTFVSPTEIIAFSNRAEDFRKLGCEVLGVSVDSQFTHLAWINTPRKEGGLGPLNIPLLADVTRRLSEDYGVLKTDEGIAYRGLFIIDGKGVLRQITVNDLPVGRSVDEALRLVQAFQYTDEHGEVCPAGWKPGSDTIKPNVDDSKEYFSKHN
# B2: recombinant mCER-Prx2(C51S) (natural protein)
# chain: B1 chain
# B3: recombinant mCER-Prx2(C172S) (natural protein)
# chain: B1 chain with S51C, C172S
# B4: recombinant mCER-Prx2 (natural protein)
# chain: B1 chain with S51C
# B5: mCER-Prx2(T82E/A85E), expressed in HEK293 cells (natural protein)
# chain: B1 chain with S51C, T82E, A85E
# Key:
# [1] = target: the molecule itself; assay: FRET or BRET
# [2] = target: the molecule itself; assay: SEC
protein,measurement,setting,value
B1,stoichiometry N,[1],10
B2,stoichiometry N,[2],10
B3,stoichiometry N,[2],2
B4,stoichiometry N,[2],10
B5,stoichiometry N,[1],2
